Data as given in patent publication US20180009871A1 (INTARCIA THERAPEUTICS, published 2018).
Where no end group is shown, it is not given here. [ ]: non-standard residue; d: D form. Aib = CC(C)(N)C(=O)O

B1: Compound A54 (peptide)
peptide: YSHGTFTSDYSKYLD[Aib]KRAQEFV[Aib]WLEDEPSSKEPPPS-OH
modifications: N-terminus assumed
SMILES: CC(C)C[C@H](NC(=O)[C@H](Cc1ccc(O)cc1)NC(=O)[C@H](CCCCN)NC(=O)[C@H](CO)NC(=O)[C@H](Cc1ccc(O)cc1)NC(=O)[C@H](CC(=O)O)NC(=O)[C@H](CO)NC(=O)[C@@H](NC(=O)[C@H](Cc1ccccc1)NC(=O)[C@@H](NC(=O)CNC(=O)[C@H](Cc1c[nH]cn1)NC(=O)[C@H](CO)NC(=O)[C@@H](N)Cc1ccc(O)cc1)[C@@H](C)O)[C@@H](C)O)C(=O)N[C@@H](CC(=O)O)C(=O)NC(C)(C)C(=O)N[C@@H](CCCCN)C(=O)N[C@@H](CCCNC(=N)N)C(=O)N[C@@H](C)C(=O)N[C@@H](CCC(N)=O)C(=O)N[C@@H](CCC(=O)O)C(=O)N[C@@H](Cc1ccccc1)C(=O)N[C@H](C(=O)NC(C)(C)C(=O)N[C@@H](Cc1c[nH]c2ccccc12)C(=O)N[C@@H](CC(C)C)C(=O)N[C@@H](CCC(=O)O)C(=O)N[C@@H](CC(=O)O)C(=O)N[C@@H](CCC(=O)O)C(=O)N1CCC[C@H]1C(=O)N[C@@H](CO)C(=O)N[C@@H](CO)C(=O)N[C@@H](CCCCN)C(=O)N[C@@H](CCC(=O)O)C(=O)N1CCC[C@H]1C(=O)N1CCC[C@H]1C(=O)N1CCC[C@H]1C(=O)N[C@@H](CO)C(=O)O)C(C)C
B2: Compound A50 (peptide)
peptide: YSHGTFTSDYSKYLD[Aib]KRAQEFV[Aib]WLEDEKRNKPPPS-OH
modifications: N-terminus assumed
SMILES: CC(C)C[C@H](NC(=O)[C@H](Cc1ccc(O)cc1)NC(=O)[C@H](CCCCN)NC(=O)[C@H](CO)NC(=O)[C@H](Cc1ccc(O)cc1)NC(=O)[C@H](CC(=O)O)NC(=O)[C@H](CO)NC(=O)[C@@H](NC(=O)[C@H](Cc1ccccc1)NC(=O)[C@@H](NC(=O)CNC(=O)[C@H](Cc1c[nH]cn1)NC(=O)[C@H](CO)NC(=O)[C@@H](N)Cc1ccc(O)cc1)[C@@H](C)O)[C@@H](C)O)C(=O)N[C@@H](CC(=O)O)C(=O)NC(C)(C)C(=O)N[C@@H](CCCCN)C(=O)N[C@@H](CCCNC(=N)N)C(=O)N[C@@H](C)C(=O)N[C@@H](CCC(N)=O)C(=O)N[C@@H](CCC(=O)O)C(=O)N[C@@H](Cc1ccccc1)C(=O)N[C@H](C(=O)NC(C)(C)C(=O)N[C@@H](Cc1c[nH]c2ccccc12)C(=O)N[C@@H](CC(C)C)C(=O)N[C@@H](CCC(=O)O)C(=O)N[C@@H](CC(=O)O)C(=O)N[C@@H](CCC(=O)O)C(=O)N[C@@H](CCCCN)C(=O)N[C@@H](CCCNC(=N)N)C(=O)N[C@@H](CC(N)=O)C(=O)N[C@@H](CCCCN)C(=O)N1CCC[C@H]1C(=O)N1CCC[C@H]1C(=O)N1CCC[C@H]1C(=O)N[C@@H](CO)C(=O)O)C(C)C
B3: Compound A53 (peptide)
peptide: YSHGTFTSDYSKYLD[Aib]KRAQEFVLWLEDEPSSGAPPPS-OH
modifications: N-terminus assumed
SMILES: CC(C)C[C@H](NC(=O)[C@H](Cc1c[nH]c2ccccc12)NC(=O)[C@H](CC(C)C)NC(=O)[C@@H](NC(=O)[C@H](Cc1ccccc1)NC(=O)[C@H](CCC(=O)O)NC(=O)[C@H](CCC(N)=O)NC(=O)[C@H](C)NC(=O)[C@H](CCCNC(=N)N)NC(=O)[C@H](CCCCN)NC(=O)C(C)(C)NC(=O)[C@H](CC(=O)O)NC(=O)[C@H](CC(C)C)NC(=O)[C@H](Cc1ccc(O)cc1)NC(=O)[C@H](CCCCN)NC(=O)[C@H](CO)NC(=O)[C@H](Cc1ccc(O)cc1)NC(=O)[C@H](CC(=O)O)NC(=O)[C@H](CO)NC(=O)[C@@H](NC(=O)[C@H](Cc1ccccc1)NC(=O)[C@@H](NC(=O)CNC(=O)[C@H](Cc1c[nH]cn1)NC(=O)[C@H](CO)NC(=O)[C@@H](N)Cc1ccc(O)cc1)[C@@H](C)O)[C@@H](C)O)C(C)C)C(=O)N[C@@H](CCC(=O)O)C(=O)N[C@@H](CC(=O)O)C(=O)N[C@@H](CCC(=O)O)C(=O)N1CCC[C@H]1C(=O)N[C@@H](CO)C(=O)N[C@@H](CO)C(=O)NCC(=O)N[C@@H](C)C(=O)N1CCC[C@H]1C(=O)N1CCC[C@H]1C(=O)N1CCC[C@H]1C(=O)N[C@@H](CO)C(=O)O
B4: Compound A51 (peptide)
peptide: YSHGTFTSDYSKYLDLKRAQEFV[Aib]WLEDEPSSGAPPPS-OH
modifications: N-terminus assumed
SMILES: CC(C)C[C@H](NC(=O)[C@H](CC(=O)O)NC(=O)[C@H](CC(C)C)NC(=O)[C@H](Cc1ccc(O)cc1)NC(=O)[C@H](CCCCN)NC(=O)[C@H](CO)NC(=O)[C@H](Cc1ccc(O)cc1)NC(=O)[C@H](CC(=O)O)NC(=O)[C@H](CO)NC(=O)[C@@H](NC(=O)[C@H](Cc1ccccc1)NC(=O)[C@@H](NC(=O)CNC(=O)[C@H](Cc1c[nH]cn1)NC(=O)[C@H](CO)NC(=O)[C@@H](N)Cc1ccc(O)cc1)[C@@H](C)O)[C@@H](C)O)C(=O)N[C@@H](CCCCN)C(=O)N[C@@H](CCCNC(=N)N)C(=O)N[C@@H](C)C(=O)N[C@@H](CCC(N)=O)C(=O)N[C@@H](CCC(=O)O)C(=O)N[C@@H](Cc1ccccc1)C(=O)N[C@H](C(=O)NC(C)(C)C(=O)N[C@@H](Cc1c[nH]c2ccccc12)C(=O)N[C@@H](CC(C)C)C(=O)N[C@@H](CCC(=O)O)C(=O)N[C@@H](CC(=O)O)C(=O)N[C@@H](CCC(=O)O)C(=O)N1CCC[C@H]1C(=O)N[C@@H](CO)C(=O)N[C@@H](CO)C(=O)NCC(=O)N[C@@H](C)C(=O)N1CCC[C@H]1C(=O)N1CCC[C@H]1C(=O)N1CCC[C@H]1C(=O)N[C@@H](CO)C(=O)O)C(C)C
B5: Compound A52 (peptide)
peptide: YSHGTFTSDYSKYLDIKRAQEFV[Aib]WLEDEPSSGAPPPS-OH
modifications: N-terminus assumed
SMILES: CC[C@H](C)[C@H](NC(=O)[C@H](CC(=O)O)NC(=O)[C@H](CC(C)C)NC(=O)[C@H](Cc1ccc(O)cc1)NC(=O)[C@H](CCCCN)NC(=O)[C@H](CO)NC(=O)[C@H](Cc1ccc(O)cc1)NC(=O)[C@H](CC(=O)O)NC(=O)[C@H](CO)NC(=O)[C@@H](NC(=O)[C@H](Cc1ccccc1)NC(=O)[C@@H](NC(=O)CNC(=O)[C@H](Cc1c[nH]cn1)NC(=O)[C@H](CO)NC(=O)[C@@H](N)Cc1ccc(O)cc1)[C@@H](C)O)[C@@H](C)O)C(=O)N[C@@H](CCCCN)C(=O)N[C@@H](CCCNC(=N)N)C(=O)N[C@@H](C)C(=O)N[C@@H](CCC(N)=O)C(=O)N[C@@H](CCC(=O)O)C(=O)N[C@@H](Cc1ccccc1)C(=O)N[C@H](C(=O)NC(C)(C)C(=O)N[C@@H](Cc1c[nH]c2ccccc12)C(=O)N[C@@H](CC(C)C)C(=O)N[C@@H](CCC(=O)O)C(=O)N[C@@H](CC(=O)O)C(=O)N[C@@H](CCC(=O)O)C(=O)N1CCC[C@H]1C(=O)N[C@@H](CO)C(=O)N[C@@H](CO)C(=O)NCC(=O)N[C@@H](C)C(=O)N1CCC[C@H]1C(=O)N1CCC[C@H]1C(=O)N1CCC[C@H]1C(=O)N[C@@H](CO)C(=O)O)C(C)C

Target: human glucagon receptor (GCGR) (human, UniProt P47871 26-477)
Experiment: cell-based or functional assay

Binder	hGCGR pEC50 (cAMP) [pEC50]
B1	12.4
B2	11.5
B3	11.6
B4	12.3
B5	12.4

Target: human GLP-1 receptor (GLP-1R) (human, UniProt P43220 24-463)
Sequence (P43220 24-463): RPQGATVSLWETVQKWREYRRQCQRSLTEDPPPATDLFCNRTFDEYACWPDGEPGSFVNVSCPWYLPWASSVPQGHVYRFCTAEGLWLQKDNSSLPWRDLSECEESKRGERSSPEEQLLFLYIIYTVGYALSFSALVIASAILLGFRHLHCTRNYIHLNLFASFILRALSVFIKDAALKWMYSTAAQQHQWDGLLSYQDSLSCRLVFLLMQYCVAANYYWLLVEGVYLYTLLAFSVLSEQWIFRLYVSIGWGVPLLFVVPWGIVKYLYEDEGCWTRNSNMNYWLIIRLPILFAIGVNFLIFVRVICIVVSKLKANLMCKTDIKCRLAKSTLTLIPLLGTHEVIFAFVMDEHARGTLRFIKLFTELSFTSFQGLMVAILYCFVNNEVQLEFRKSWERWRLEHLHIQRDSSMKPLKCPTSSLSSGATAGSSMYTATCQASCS
Experiment: cell-based or functional assay

Binder	hGLP1 pEC50 (cAMP) [pEC50]
B1	< 9
B2	< 9
B3	< 9
B4	< 9
B5	< 9
